The target of the test is SNAP-tagged murine µOR on HEK293 cells (murine, UniProt P42866, SNAP-Lumi4-Tb (terbium cryptate) on the SNAP tag). Put plainly: AlphaScreen or HTRF. For orientation: In Alpha technology, singlet oxygen from a donor bead excites a nearby acceptor bead.
SNAP-tagged murine µOR on HEK293 cells, sequence (P42866 whole entry): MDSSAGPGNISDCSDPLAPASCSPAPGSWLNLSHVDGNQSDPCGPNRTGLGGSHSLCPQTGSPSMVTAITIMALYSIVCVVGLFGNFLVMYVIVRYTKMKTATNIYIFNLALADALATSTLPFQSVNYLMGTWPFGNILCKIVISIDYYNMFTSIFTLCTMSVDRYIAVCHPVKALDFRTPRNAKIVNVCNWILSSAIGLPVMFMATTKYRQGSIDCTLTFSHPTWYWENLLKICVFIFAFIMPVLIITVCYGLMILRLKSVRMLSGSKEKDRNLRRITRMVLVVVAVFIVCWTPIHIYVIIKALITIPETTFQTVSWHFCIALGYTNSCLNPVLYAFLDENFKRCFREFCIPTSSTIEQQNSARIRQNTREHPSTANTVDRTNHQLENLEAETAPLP

B1: mNbE (N45K, Q117K, Q120P)-6xHis (VHH)
VHH: QVQLVESGGGLVQAGGSLRLSCAASGSISSISTMGWYRQAPGKERELVAAITSGGSTNYADSVKGRFTISRDNAKNTVYLQMNSLKPEDTAVYYCNFKYYSGSYFYKSEYDYWGKGTPVTVSS
As to B1, the binding result is on record as “binds”.

(Values after paper PMC11464722 (Nature Communications, 2024).)
